The source of these data is article PMC3461310 (2013).

Where “and” joins values, the source holds several entries; their conditions need not be identical. Equal entries are not always repeated.

In one assay the target is thrombin (Homo sapiens, UniProt P00734, heparin (1 and 50 μM)). The assay is described as follows: inactivation kinetics with Hir-.
Assay [1] has as its target thrombin ([4′F]FPR-T) (Homo sapiens, UniProt P00734, active site labeled with 4′-fluorescein-FPR, heparin (T·Hep complex)). In words: fluorescence equilibrium binding.
Assay [2] addresses thrombin ([4′F]FPR-T) (Homo sapiens, UniProt P00734, active site labeled with 4′-fluorescein-FPR, heparin (T·(Hep)2 complex)). In words: fluorescence equilibrium binding.
The target in assay [3] is thrombin ([6F]FFR-T) (Homo sapiens, UniProt P00734, active site labeled with 6-fluorescein-FFR, heparin (T·Hep complex)). The assay is described as follows: fluorescence equilibrium binding.
The target of assay [4] is thrombin ([6F]FFR-T) (Homo sapiens, UniProt P00734, active site labeled with 6-fluorescein-FFR, heparin (T·(Hep)2 complex)). The assay is described as follows: fluorescence equilibrium binding.
The target in assay [5] is thrombin ([4′F]FPR-T) (Homo sapiens, UniProt P00734, active site labeled with 4′-fluorescein-FPR). In words: fluorescence equilibrium binding.

B1: heparin cofactor II (protein)
chain: GSKGPLDQLEKGGETAQSADPQWEQLNNKNLSMPLLPADFHKENTVTNDWIPEGEEDDDYLDLEKIFSEDDDYIDIVDSLSVSPTDSDVSAGNILQLFHGKSRIQRLNILNAKFAFNLYRVLKDQVNTFDNIFIAPVGISTAMGMISLGLKGETHEQVHSILHFKDFVNASSKYEITTIHNLFRKLTHRLFRRNFGYTLRSVNDLYIQKQFPILLDFKTKVREYYFAEAQIADFSDPAFISKTNNHIMKLTKGLIKDALENIDPATQMMILNCIYFKGSWVNKFPVEMTHNHNFRLNEREVVKVSMMQTKGNFLAANDQELDCDILQLEYVGGISMLIVVPHKMSGMKTLEAQLTPRVVERWQKSMTNRTREVLLPKFKLEKNYNLVESLKLMGIRMLFDKNGNMAGISDQRIAIDLFKHQGTITVNEEGTQATTVTTVGFMPLSTQVRFTVDRPFLFLIYEHRTSCLLFMGRVANPSRS
Usually Kd stands for the equilibrium constant for the complex coming apart. Turning to B1, the Kd with thrombin was 0.04 µM; with thrombin ([4′F]FPR-T) [1], 0.2 µM and 0.23 µM; with thrombin ([4′F]FPR-T) [2] it was 0.6 µM; with thrombin ([6F]FFR-T) [3], 0.3 µM and 0.15 µM; in the assay with thrombin ([6F]FFR-T) [4], 0.14 µM.

B2: prothrombin fragment 2 fragment 2 (protein)
chain: SEGSSVNLSPPLEQCVPDRGQQYQGRLAVTTHGLPCLAWASAQAKALSKHQDFNSAVQLVENFCRNPDGDEEGVWCYVAGKPGDFGYCDLNYCEEAVEEETGDGLDEDSDRAIEGRTATSEYQTFFNPR
As for B2, the equilibrium dissociation constant (Kd) with thrombin ([4′F]FPR-T) [5] amounted to 5 µM.
